Laboratory results: publication doi:10.1101/2025.02.13.638205 (2025)

B1: recombinant Pfs230 D13D14 (K2828-E3111) (domain or fragment)
chain: KTIGKDICKYDVTTKVATCEIIDTIDSSVLKEHHTVHYSITLSRWDKLIIKYPTNEKTHFENFFVNPFNLKDKVLYNYNKPINIEHILPGAITTDIYDTRTKIKQYILRIPPYVHKDIHFSLEFNNSLSLTKQNQNIIYGNVAKIFIHINQGYKEIHGCDFTGKYSHLFTYSKKPLPNDDDICNVTIGNNTFSGFACLSHFELKPNNCFSSVYDYNEANKVKKLFDLSTKVELDHIKQNTSGYTLSYIIFNKESTKLKFSCTCSSNYSNYTIRITFDPNYIIPE
B2: nanobody W2812 (VHH)
VHH: QVQLQESGGGLVQPGGSLRLSCAASGRTFSSYMMAWFRQSQGNERELVAGLTRSGVSAYYADSVKGRFTISRDNAKNTVYLQMNSLKPKDTAVYYCAAASTTYINHIYTNPSNYPHWGPGTQVTVSS
B3: nanobody W2810 (VHH)
VHH: QVQLQESGGGLVQAGGSLRLSCAASGRTFSSYAMGWFHQAPGKEREFVASISWSGGSIRYADSVKGRFTVSRDNAKNTAYLQMNSLKPEDTGVYYCAAGPYSSDYGGFGSWGQGTQVTVSS

Assays:
W2811 = experiment: BLI
[1] = biological target: B1; experiment: BLI

B1
Kd (W2811): 5.12 nM

B2
Kd [1]: 1.55 nM

B3
Kd [1]: 4.8 nM
